# Results taken from the nanobody polyreactivity screen of Harvey et al. (2022).
# Assay: yeast display, Sf9 membrane polyspecificity reagent, FACS + sequencing; frameworks hold sequencing errors
# Procedure, shortened: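 Nanobodies from a synthetic yeast display library (Saccharomyces cerevisiae BJ5465), induced 36–48 hours with galactose, were stained 1 hour at 4 °C with 10% biotinylated, detergent-solubilized Sf9 membrane reagent, enriched on streptavidin microbeads, then FACS-sorted. Anti-HA (expression) and streptavidin (reagent binding) fluorescence set low and high (top ~1%) gates. Polyreactivity labels come from the gate of origin. Genes were colony-PCR amplified, MiSeq 2 × 250 sequenced and filtered by CDR length.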
sequence,measurement,value
QVQLVESGGGLVQAGVSLRLSCPAGGSTFYKYVMGWYRQAPGKEREVVAAISVNGGDTYYADSVKGRFTISRDNAKNTVSVQMNSLNPEDTAVYYCAAERGVDLSARYGDNDNWGQGTQVTVTS,polyreactivity (PSR sort gate),low polyreactivity
QVQLVESGGGLVQAGVSLRLSCSASGLTFRPNAIGWYRQAPGKERELVAAITWSGGRTYYADSVKGRFTISRDNATNTVYFQMNSLKPEDTAVYYCAAVPLRNRWPNSWPALDYWGQVTQVTVSS,polyreactivity (PSR sort gate),high polyreactivity
QVQLVESGGGLVQALGSLRLSCAASGSIFQRNALGWYRLAPGKERELVAAISRSGGSTYYADSVKGRFTISRDNAKNTVYCQMNSLQPEDTAVYYCAAVHFFWGYDYWGQGTQVTVSS,polyreactivity (PSR sort gate),high polyreactivity
QVQLVESGGGLVQARCSLRLSCDASGSIFPHYAMGWYRQAPGKEREFVATISGSTGRTYYADSVKGRFTISRDYAKNTVYLQMNSLKTEDTAVYYCATSVGYYLPPIKYDYWGQGTQVTVSS,polyreactivity (PSR sort gate),low polyreactivity
QVQLVESGGGLVQARGRLRLSFAASGSIFSTNAMGWYRQATGKERELVAAISSSDGITYYADSVKGRFTISRDNAMNTVYLQMNSLKPEDTAVYYCAAEYAYGIEESSAYNIYFYWGQGTQVTVSS,polyreactivity (PSR sort gate),high polyreactivity
QVQLVESGGGLVQARGSHRLSCAASGRTFVTNAMGWYRQAPGKERELVAAIRWSSDSTYYADSVKGRFTISRVIAKNTVYLQMNSLKPEYTAVYYCAARIPKQQGYGYWGQGTQVTVSS,polyreactivity (PSR sort gate),high polyreactivity
QVQLVESGGGLVQARGSLRLICAASGRIFPDYGMGWYRQAPGKESEFDAVIDWIGVSTYYADSVKGRFTISRDNAKNTVYLQINSLKPEDTAVYYCNAEYAFPSPKSSLDYWGQGTQVTVSS,polyreactivity (PSR sort gate),low polyreactivity
QVQLVESGGGLVQARGSLRLSCAACGSTFYWYPLGWSRQAPGTERELVATLTSVGRTNYADSVKGRFTISRDNAKNSVYLQMNRLNPEDTAVYYCAASKARWPRGGSRGGMGYWGQGTQVTVSS,polyreactivity (PSR sort gate),high polyreactivity
QVQLVESGGGLVQARGSLRLSCAASAFIIPVYTIGWYRQAPGKERELVAAITQIGGSTHYADSVKGRFTISRANAKNTVYLQMNSLKPEDTAVYYCAVDYDSYWYGTYVNEYDYWGLGTQVTVSS,polyreactivity (PSR sort gate),low polyreactivity
QVQLVESGGGLVQARGSLRLSCAASGFTFERYTMGWYRQAPGKERELVATISRRSGRTSYADSVKGRFTISRDNEMNSVYLQMNSLKPEDTAVYYCAVDDAYPDRYDYWGQGPQVTVSS,polyreactivity (PSR sort gate),high polyreactivity
QVQLVESGGGLVQARGSLRLSCAASGIIFLVNDMGWYRQAPGKVRELVAAITYSGDGTFYADSVKGRFTISRDNAKNTVYLQMNSLKPEDTAVYYCAADLPESPESYYHTDDYWGQGTQGTVSS,polyreactivity (PSR sort gate),low polyreactivity
QVQLVESGGGLVQARGSLRLSCAASGITFNRYVMGWYRQAPGKERELVAAISRTGGSTYYADSVKGRFTISRDNAKNTDFLQMNSLKPEDTAVYYCAAATSPGIYDYWGQGTQVTVSS,polyreactivity (PSR sort gate),high polyreactivity
QVQLVESGGGLVQARGSLRLSCAASGITFSRNVMGWYRQAPGKERELVAAISRSGGRTYYADSVKGRFTISRDNAKNTVYLQMNSLKPEVTAVYYCNRDIGGTTVLDDYCGQGTQVTVSS,polyreactivity (PSR sort gate),low polyreactivity
QVQLVESGGGLVQARGSLRLSCAASGRIFRKYDMGWYRQAPGKERELVAAISGTGITYYADSVKGRFTISRDNAKNTVYLQMNSMKPEDTAVYYCARGSKPRAWSWAYPSDTSIYDYWGQGTQVTVSS,polyreactivity (PSR sort gate),low polyreactivity
QVQLVESGGGLVQARGSLRLSCAASGRIFWSNAMGWYRQAPGKERELVAAISYSGDSTYYADSVKGRFTISRDNAKNTVYIQMKSLKPEDTAVYYCTAVGHRSYRYDYWGQGTQVTVSS,polyreactivity (PSR sort gate),high polyreactivity
QVQLVESGGGLVQARGSLRLSCAASGRTFGPYAMGWYRQAPGKERELVAAISSSEGSTYYADSVKGRFTISRDIAKYSVYLQMNSMKPEDTAVYYCNARYYLWSTTRWYGYDYWGQGTQVTVSS,polyreactivity (PSR sort gate),high polyreactivity
QVQLVESGGGLVQARGSLRLSCAASGSIFLYYAMGWYRQAPGKEREFVAAISIIGGSTYYADSVKGRFTISRDNAKNTVYLQMNSLKPEDTAVYYCAADYYYHRWTSVEGGYWGQGTQVTVSS,polyreactivity (PSR sort gate),low polyreactivity
QVQLVESGGGLVQARGSLRLSCAASGSIFRSYAMGWYRQAPGKERELVAAITSGGNTYYADSVKGRFTISRDNAKNTVYLQMNSLKPEDTAVYYCAKRRYNYLSDYDYWGQGTQVTVSS,polyreactivity (PSR sort gate),low polyreactivity
QVQLVESGGGLVQARGSLRLSCAASGSIFYYNTMGSDRQAPGKEREFVAAITYSGGSTYYSDSVKGRFTISRDKAKKTVYLLMNSLKPEDTAVYYCAAYIFYFSGGLNNRGTRGYWGQGTQVTVSS,polyreactivity (PSR sort gate),low polyreactivity
QVQLVESGGGLVQARGSLRLSCAASGSTFGRYVMGWYRQAPGKERELVAAISKNAGSTYYADSVKGRFTISRDNAKNTVYLQMTSLKPEDTAVYYCAADWRTKGYDSLGQGTQVTVSS,polyreactivity (PSR sort gate),high polyreactivity
QVQLVESGGGLVQARGSLRLSCAASGSTFPYYAMGWYRQAPGKARELVAAITSSTGRTYYADSVKGRFTISRDNAKNTVYLQMNSLKPEDTAVYYSNAEVYSDPYNDHDYWGQGTQVTVSS,polyreactivity (PSR sort gate),low polyreactivity
QVQLVESGGGLVQARGSLRLSCAASGSTFVQNAMGWYRQAPGKEREFVAAIRVSGDNTYYADSVKGRFTISLDNAKNTVYLQMNSLKPEDTAVYYFAATGTFVGSVDYWGQGTQVTVSS,polyreactivity (PSR sort gate),low polyreactivity
QVQLVESGGGLVQARGSLRLSCAASGSTLRRYAMGWYRQAPGKERELVAAISSSGGSTYYADSVKGRFTISRDNAKNTVYLQMNSLKPEDTAVYYCAALVRKRVNTYQGYYPGDYWGQGTQGTVSS,polyreactivity (PSR sort gate),high polyreactivity
QVQLVESGGGLVQARGSLRLSCAASGSTVGYNAMGWYRQAPGKERELVAAISGNGGSTYADSVKGRFTISRDNAKNTVYLQMNSLKPEDTAVYYCAAVQYGYGLASDSIFDYWGQGTQVTVSS,polyreactivity (PSR sort gate),high polyreactivity
QVQLVESGGGLVQARGSLRLSCAASVITFRHNTMGWYRQAPGKERELVSTNYADSVKGRFTISRDNAKNTVYLQMNSLKQEDTAVYYCNADGTFEYDYWGQGTQVTVSS,polyreactivity (PSR sort gate),low polyreactivity
QVQLVESGGGLVQARGSLRLSCAATGRTFQIYAMGWYRQAPGKERELVAAISSGGRTNYADSVKGRFTISRDNAKNTVYLQMNSLKPEDTAVYYCAKRWARPGMDYWGQGTQVTVSS,polyreactivity (PSR sort gate),high polyreactivity
QVQLVESGGGLVQARGSLRLSCASSGRTFYTYAMGWYRQAPGKERELVAAIRRVGSTNYADSVKGRFTISRDNAKNTGYLQMNSLKPEDTAVYYCAVRLVWPWQGYDYWGQGTQVTVSS,polyreactivity (PSR sort gate),low polyreactivity
QVQLVESGGGLVQARGSLRLSCASSGSIFGWNAMGGYRQAPGKERELVAAISSVGSTYYADSVKGRFTISRDNAKNTVYLQMNSLKPEDTAVYYCAAPVIQITDVWYDAETYPDYDYWGEGTQVTVSS,polyreactivity (PSR sort gate),low polyreactivity
QVQLVESGGGLVQARGSLRLSSAASGIIFYEYAMGCYRQAPGKERELVAAISDTGGSTYYADSVKGRFTISRDNAKNTVYLQMNSLKPEDTAVYYCAAEYLAYYSGYDYWGQGTQVTVSS,polyreactivity (PSR sort gate),high polyreactivity
QVQLVESGGGLVQARGSLRLSSAPSGRTFTVYAMGWYRHARGKERELVAAIRRTGSTYYADSVKGRFTISRDNAKNTVYLQMNSLKPEDTAVYYCYARPSTGWSIYGVDYWGQGTQGTVSS,polyreactivity (PSR sort gate),low polyreactivity
QVQLVESGGGLVQARGSLRLSWAASGSTFQVYAMGWSRPAPGKERELVAAINYSGGSTYYADSVKGRFTISRDNAKNTVYVLMNSLKPEDTAVYYCAVKLRSRAGTSYGYWGQGTQVTVSS,polyreactivity (PSR sort gate),high polyreactivity
